B1: FBXO34 (parent)
chain: ASSVESTLPVLEASSWKKQVSHDF
B2: EHMT1 (parent)
chain: SARQGELQKVLLMLVDGIDPNFKM

Variants of: B1
Assay: protein stability index of a GFP-peptide fusion (GPS, HEK-293T) (PSI 1-6); higher = more stable
Details: c terminus: a fixed tail appended
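Note: lentivirally expressed fusions sorted by FACS into six bins by GFP to DsRed ratio, PSI derived from sequencing read proportions per bin multiplied by bin number.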

Protein stability index: each site, then its substitutions
P9: T 1.98; V 2.4; W 2.8; Y 1.8
V10: A 3.64; C 2.95; D 3.25; E 2.83; F 2.22; G 3.41; H 2.5; I 2.39; K 2.45; L 2.55; M 3.73; N 1.84; P 3.19; Q 3.16; R 2.3; S 3.22; T 2.58; W 2.37; Y 1.76
L11: A 3.52; C 2.85; E 3.02; F 2.88; G 2.01; I 2.91; K 2.19; M 2.33; N 2.85; P 2.78; Q 2.96; R 3.05; T 2.87; V 3.03; W 2.54; Y 2.69
E12: A 3.02; C 2.54; D 2.83; F 2.25; G 2.49; H 2.82; I 2.12; K 2.36; L 2.24; N 3.1; P 3.46; S 2.32; T 2.86; V 2.73; Y 2.22
A13: C 2.36; D 3.19; F 2.38; H 2.37; I 2.49; K 2.27; L 2.61; M 2.85; N 3.21; P 3.66; Q 2.37; R 1.59; S 3.36; T 2.18; V 3
S14: C 2.95; D 1.67; E 2.75; F 2.49; G 2.8; H 2.4; I 3.74; L 2.14; M 1.53; N 3.02; P 3.07; Q 2.4; R 2.39; T 2.33; V 2.35; W 1.12; Y 2.3
S15: A 3.05; D 4.01; F 2.75; G 3.65; H 3.24; I 4.11; K 3.92; L 3.4; M 3.5; N 2.88; P 3.61; Q 3.44; R 3.81; T 3.07; V 2.84; W 2.38; Y 2.99
W16: A 4.01; C 4.2; D 5.44; E 5.07; F 3.67; G 4.66; H 4.31; I 3.71; K 4.18; L 3.94; M 5.15; N 4.99; P 4.61; Q 4.71; R 4.69; S 4.2; T 4.81; V 4.99; Y 3.75
K17: A 1.83; C 3.17; D 4.16; F 2.85; G 2.98; H 3.17; I 1.59; L 2.85; M 2.58; N 3.75; P 3.95; Q 1.52; S 2.38; T 1.61; W 2.02; Y 2.38
K18: A 2.21; C 2.11; D 1.88; E 1.38; F 1.8; G 3.49; H 2.39; I 2.37; L 2.83; M 1.5; N 2.94; P 2.99; Q 2.69; R 3.15; S 3.72; T 2.95; V 2.53; W 2.58; Y 2.44
Q19: A 2.61; C 2.92; D 4.28; E 4.58; F 2.82; G 4.14; H 4.77; I 2.45; K 1.89; L 2.57; M 2.27; N 3.97; P 4.53; R 1.95; S 4.08; T 3.3; W 2.59; Y 2.01
V20: A 3.91; C 3.44; D 4.84; E 4.85; F 3.72; G 4.09; H 4.6; I 3.69; K 4.3; L 3.55; M 4.34; N 4.13; P 4.04; Q 4.01; R 4.22; T 4.29; W 2.47; Y 3.5
S21: A 3.31; C 2.72; D 4.89; E 2.76; F 2.89; G 2.79; H 3.58; I 2.64; K 3.26; L 2.44; M 3; N 3.64; P 3.87; Q 3.08; R 3.79; T 3.61; V 3.65; W 2.3; Y 2.97
H22: C 2.94; D 3.65; E 2.69; F 2.73; G 4.47; I 2.84; K 3.31; L 3.36; M 2.23; N 2.54; P 4.1; Q 2.58; R 2.09; S 2.79; T 3.19; V 2.83; W 2.18; Y 3.01
D23: A 3.54; C 2.22; E 1.77; F 3.22; G 3.06; H 3.27; I 2.07; K 3.54; L 3.27; M 2.96; P 2.91; Q 2.93; R 3.76; S 3.14; T 3.26; W 2.61; Y 2.18
F24: A 3.78; C 3.49; G 2.98; H 3.98; I 2.19; K 4.79; L 2.31; M 3; N 4.25; P 4.26; Q 4.25; R 4.53; S 4.33; T 3.77; V 3.83; W 2.45; Y 3

Variants of: B2
Assay: as above
Details: c terminus: a fixed tail appended

Protein stability index of substitutions, site by site:
L7: M 1.27; D 2.19; V 1.03; N 1.36
S1: M 1.42; I 1.39; L 1.03
R3: Q 2.25; H 1.5; P 2.83; C 1.83
Q4: M 3.05
D19: H 3.59; A 3.05; E 1.5
L11: Q 2.19
L14: N 3.02
Q8: P 1.76; L 3.28
E6: P 2.45; D 1.69
G17: M 1.78; F 3.49; C 2; E 2.08
M13: Q 2.09; N 2.46; I 1.04
K23: R 2.82; A 2.4; N 1.3
G5: M 3.61; T 3.12; H 1.97; W 2.55; I 3.95
P20: K 1.76; D 1.43
F22: I 2.09; Q 1.76; P 1.76; S 2.71
V10: C 1.77; S 2.29; R 1.88; N 3.15; E 3.02
V15: P 2.39; K 2.25; S 1.83; D 2.69
A2: T 3.06; S 3.14; V 1.75; Q 1.78; P 2.31
N21: R 1.26; G 3.57
D16: I 1.69; L 2.31; C 1.61; F 1.6; E 1.51; A 2.11
L12: T 1.28; R 2.12
K9: H 1.62; N 1.91; R 1.68
I18: P 1.06
